# ± gives the standard deviation of the averaged measurements.
# Test system: Saccharomyces cerevisiae
# Test: protein stability index of tFT-peptide fusion (C-terminal peptide) (PSI (0-1 scale)); higher = more stable (slower turnover)
# Conditions: genetic background: wild type; temperature: 30 C
# 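Further: PSI is a weighted mean of sequencing reads over stability bins, variants kept only with over 10 reads, mCherry proximal and sfGFP distal, peptide attached via GGGS linker.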
row,Sequence,protein stability index
1,RGGPTRVSLPPR,0.654 ± 0.016
2,RGGRGLAAGAWW,0.7035 ± 0.0055
3,RGGVGLEGEGGE,0.615 ± 0.026
4,RGGVRGAIHSDL,0.7039 ± 0.0025
5,RGHKHSNNVSRR,0.696 ± 0.019
6,RGKKGQKEPAEK,0.688 ± 0.048
7,RGLSGSHRAGIV,0.69334 ± 0.00034
8,RGPPMPGRRGRA,0.7 ± 0.052
9,RGPPRRLQCLGR,0.7121 ± 0.003
10,RGPRVVYYRLYV,0.722 ± 0.12
11,RGRDLSLCQFFY,0.7364 ± 0.0024
12,RGRPEVRPPGHY,0.707 ± 0.03
13,RGSILTTVNPPR,0.75 ± 0.13
14,RGSSWSRVAGDG,0.631 ± 0.063
15,RGTGRLDRLGLR,0.662 ± 0.043
16,RGVCGVGLYTGG,0.657 ± 0.02
17,RGVGCDMGGDGG,0.65 ± 0.042
18,RGVGLGRWGPVV,0.652 ± 0.0081
19,RGVGVRYGVARR,0.6695 ± 0.006
20,RGVTEYDSGSSL,0.647 ± 0.045
21,RGWVAGGSSAWS,0.673 ± 0.054
22,RGWVGGGSSAWS,0.651 ± 0.024
23,RGWWVLCGGGWG,0.567 ± 0.026

row,Sequence,protein stability index
1,RHAVNAQPVARP,0.647 ± 0.036
2,RHHRACLNTRLG,0.671 ± 0.065
3,RHISRIYVERRY,0.695 ± 0.02
4,RHRGVYMDRGCL,0.663 ± 0.053
5,RHRPLPETDLAS,0.708 ± 0.016
6,RHSSRYLIEFDN,0.744 ± 0.03
7,RHYGRSLRLIKT,0.59 ± 0.011
8,RHYLWAECGSSE,0.709 ± 0.017
9,RIALWPTSMPAL,0.684 ± 0.041
10,RIAWTKEKMGKT,0.661 ± 0.024
11,RIDHYIFYVNAV,0.675 ± 0.017
12,RIFSPVFLSMSV,0.649 ± 0.018
13,RIGKKKRYNEKS,0.751 ± 0.062
14,RIINRATIIIKL,0.564 ± 0.0065
15,RIKEYITDEKNR,0.674 ± 0.056
16,RINIDLKKIAKK,0.689 ± 0.05
17,RIRGPECDLWFR,0.707 ± 0.019
18,RIRTLASRRLEG,0.709 ± 0.1
19,RISIHGECHFHK,0.654 ± 0.014
20,RIVVDIYANRRG,0.689 ± 0.02
21,RKDDRPYIRETS,0.701 ± 0.016
22,RKDKKKKGSKEE,0.69 ± 0.046
23,RKEQEDVHNKKK,0.671 ± 0.051

row,Sequence,protein stability index
1,RKEVKAWKTTDI,0.694 ± 0.013
2,RKKKKKKENKRR,0.754 ± 0.054
3,RKKKKKKKKKSN,0.631 ± 0.089
4,RKKQKKQKKKKG,0.682 ± 0.0092
5,RKKRFENKKEKY,0.731 ± 0.057
6,RKNHKKNHKTRI,0.65 ± 0.087
7,RKNKQVDLCHRE,0.676 ± 0.037
8,RKSRKPNSEPKR,0.717 ± 0.0072
9,RKSTVILLLTDT,0.668 ± 0.054
10,RKTKKEEKTKRN,0.719 ± 0.2
11,RKVTQSKQGKKR,0.722 ± 0.0093
12,RKYKKKKGSKEE,0.708 ± 0.063
13,RLCPNSITLPSL,0.7156 ± 0.0018
14,RLDVVGVPERTL,0.762 ± 0.047
15,RLEKGEDREGKK,0.641 ± 0.085
16,RLEMPSVRSCAV,0.638 ± 0.17
17,RLFGFGEQKIEE,0.695 ± 0.021
18,RLGERGAKPQGR,0.635 ± 0.0074
19,RLGGTMVVGTGG,0.661 ± 0.041
20,RLGHAIVLLLPC,0.57 ± 0.027
21,RLGKRKKPYTQG,0.756 ± 0.077
22,RLGLQWGEFGTL,0.72 ± 0.033
23,RLHHQYSEATIS,0.703 ± 0.027

row,Sequence,protein stability index
1,RLHSLFVSCPTC,0.703 ± 0.023
2,RLIPYPPPLSLP,0.724 ± 0.021
3,RLLGLWGEVMGF,0.731 ± 0.021
4,RLLGSGHCLLYI,0.613 ± 0.047
5,RLPAFSSDLLRH,0.704 ± 0.046
6,RLPLRVTGIPVD,0.6668 ± 0.0016
7,RLPPPLPQAPPT,0.712 ± 0.023
8,RLPQIHSDREQK,0.746 ± 0.018
9,RLPSPPTAPAPP,0.658 ± 0.0084
10,RLRASFFFSPAL,0.733 ± 0.056
11,RLRFIGDCKSST,0.637 ± 0.031
12,RLRGLLSPVGPQ,0.716 ± 0.047
13,RLRVIMVSVGGV,0.544 ± 0.0079
14,RLSDFFSPPLLP,0.717 ± 0.047
15,RLSMCLDDPPRL,0.717 ± 0.025
16,RLSPGSPSPFPC,0.691 ± 0.029
17,RLSSFDELSDVY,0.729 ± 0.026
18,RLYTNEMIRGSF,0.69 ± 0.04
19,RMGGRGGRLGAE,0.657 ± 0.018
20,RMGWSGKVGVVG,0.78 ± 0.11
21,RMNSDMKDTEAQ,0.65 ± 0.0075
22,RNARSPACRTRR,0.7481 ± 0.0052
23,RNFWIYTHTRCR,0.668 ± 0.049

row,Sequence,protein stability index
1,RNKLEKKIYKRS,0.672 ± 0.014
2,RNKSRMWKEIIR,0.657 ± 0.069
3,RNRAGHVGCYGL,0.6989 ± 0.0066
4,RNRSNTQAKVIR,0.6725 ± 0.004
5,RNTKGTIKKKKE,0.715 ± 0.074
6,RNTPFVCVRNGA,0.726 ± 0.16
7,RPAFSPDVSPPS,0.716 ± 0.013
8,RPEAVARIFDDE,0.724 ± 0.013
9,RPFLSVLPLFFP,0.734 ± 0.0017
10,RPFSSPSPSLPA,0.743 ± 0.071
11,RPGGSRTEGRRT,0.683 ± 0.033
12,RPPISLGSLLVG,0.714 ± 0.1
13,RPPPAAPLHITS,0.714
14,RPPPHPPFPPRF,0.714 ± 0.052
15,RPPPLPLPPHFP,0.709 ± 0.069
16,RPPPPLSPPSLV,0.73 ± 0.0084
17,RPPRPSSSPLPP,0.719 ± 0.059
18,RPPSLWRSSFTP,0.6822 ± 0.0026
19,RPQNDRKMRKVE,0.621 ± 0.059
20,RPRELHNSETVY,0.683 ± 0.025
21,RPRTLLARSTHP,0.717 ± 0.013
22,RPRVDLCDINPE,0.692 ± 0.021
23,RPSHPPHLPPPV,0.6753 ± 0.0044

row,Sequence,protein stability index
1,RPSLSPLHVPPS,0.748 ± 0.047
2,RPVRYVLSGGCI,0.68 ± 0.012
3,RPYKINNNIEVK,0.676 ± 0.01
4,RQEKITQHRARI,0.689 ± 0.024
5,RQLGELASARWL,0.709 ± 0.025
6,RQPRPPDDIASV,0.678 ± 0.032
7,RQRSKEPVVQAY,0.654 ± 0.046
8,RQSSPKQDRKPS,0.679 ± 0.048
9,RRATHTRDINNL,0.643 ± 0.015
10,RRERQRRARTEI,0.6876 ± 0.0036
11,RREVFIPSTRVL,0.698 ± 0.044
12,RRGAPSYATLAL,0.637 ± 0.0073
13,RRGASWDEDAGS,0.719 ± 0.0086
14,RRGENQSFPACR,0.701 ± 0.028
15,RRGHMTRFTHSR,0.692 ± 0.077
16,RRGPDRCSSLPS,0.6638 ± 0.0044
17,RRHHSVSPLPFL,0.709 ± 0.0099
18,RRIGKTFLSLNI,0.709 ± 0.073
19,RRKGGEERKLKK,0.629 ± 0.037
20,RRKRTKGRGRAQ,0.6986 ± 0.002
21,RRLAGRPVTRGA,0.667 ± 0.015
22,RRLEPGVAWFPT,0.661 ± 0.01
23,RRLLRWFYLDGG,0.661 ± 0.022

row,Sequence,protein stability index
1,RRMAGEPKCGRS,0.699 ± 0.015
2,RRPGGQGHPNAG,0.752 ± 0.023
3,RRPGSTTPPAYR,0.675 ± 0.048
4,RRPTVLRHQSPI,0.737 ± 0.031
5,RRREESGEGSEQ,0.635 ± 0.073
6,RRRLLLWEELVE,0.7706 ± 0.004
7,RRRQARGANAHS,0.7 ± 0.013
8,RRRRAVGPREAP,0.717 ± 0.17
9,RRRREKWSVVHR,0.758 ± 0.0096
10,RRRTARVRTGQV,0.647 ± 0.043
11,RRRVADIYHGEK,0.713 ± 0.086
12,RRSGLTNLCSLH,0.746 ± 0.04
13,RRSRPSSPYLPP,0.707 ± 0.0094
14,RRTTYKKVKRKK,0.65 ± 0.062
15,RRVGPVSPNWIS,0.6499 ± 0.0042
16,RRVPVVSRAGGG,0.697 ± 0.067
17,RRWAFWGAAAAR,0.702 ± 0.013
18,RRWCATLGRDRV,0.7029 ± 0.0051
19,RRWGGCPGVRGC,0.666 ± 0.019
20,RSANIINPHIFP,0.758 ± 0.014
21,RSASPPRPLPPP,0.737 ± 0.032
22,RSCCSFRLEPYC,0.671 ± 0.026
